Measured values as given in the supplement of paper PMC9170038.

Test system: K4 kissing-loop RNA reporter
Assay: apparent KD of K4 kissing-loop reporter; higher = weaker reporter binding
Settings: Eterna round: R107
Protocol: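 RNA-MaP round R107: designed RNA switches with theophylline, tryptophan, arginine or FMN aptamers are transcribed on-chip within common flanks. They are titrated with a labelled K4 kissing-loop RNA reporter in RNA-MaP buffer (100 mM Tris pH 7.5, 80 mM KCl, 4 mM MgCl2), without ligand or with the indicated ligand. Median apparent KD per design.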

[1] = input ligand: theophylline 20 uM
[2] = input ligand: tryptophan 2.4 mM
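Also: bound reporter read as fluorescence of individual clusters on recovered sequencing chips by microscopy, with normalized cluster intensities fitted with a binding model.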

| Sequence | apparent KD of K4 kissing-loop reporter (input ligand: FMN 200 uM) | apparent KD of K4 kissing-loop reporter (input ligand: arginine 13.2 mM) | apparent KD of K4 kissing-loop reporter (input ligand: none) | apparent KD of K4 kissing-loop reporter [1] | apparent KD of K4 kissing-loop reporter [2] |
| --- | --- | --- | --- | --- | --- |
| UGUCAUUGGUCGGCCGCCACUGGACCGGGUAUAAUCCCAGUGAUGUUGGUAAAAUACGGCCGCCACAGGACCGGGACCGAUGACU [TrypBS 15 #DoubleAptamer #SwitchBubble #K4Middle] | 234 nM | 208 nM | 240 nM | 215 nM | 134 nM |
| UGUCAUUGGUCGGCCGCCACUUCAAAGAGAGUGAUGUUCUUAAAGACGGAUCGAAAGAUCUGUCGAAGGACCGGGACCGAUGACU [TrypBS 17 #SwitchBubble #StaticStem] | 1770 nM | 973 nM | 1110 nM | 1200 nM | 285 nM |
| UGUCAUUGGUCGGCCGCCACUUCAGGUCAAAGACCAGAGUGAUGUUCUUGCACAAAGUGCUUAAGAAGGACCGGGACCGAUGACU [TrypBS 14 #SwitchBubble #K4Middle] | 256 nM | 53.5 nM | 63.3 nM | 69.5 nM | 1060 nM |
| UGUCAUUGGUCGGCCGCCACUUCAUAAAGAGUGAUGUUCUGAAAGACGGAUCGAAAGAUCUGUCGGAGGACCGGGACCGAUGACU [FiskerMod 2 - Jieux - Same State - Tryptophan B] | 1450 nM | 587 nM | 1440 nM | 686 nM | 397 nM |
| UGUCAUUGGUCGGCCGCCACUUCGUGUGGAGUGAUGUUUUGUAGGACGGAUCGAAAGAUCUGUCGAAGGACCGGGACCGAUGACU [FiskerMod 19 - Jieux - Same State - Tryptophan B] | 96.8 nM | 85.8 nM | 87.6 nM | 33.5 nM | 285 nM |
| UGUCAUUGGUCGGCCGCCACUUGAAGGUCAAAGACCAUAGAGUGAUGUUCUAAGACGAAAGUCACGAGGACCGGGACCGAUGACU [TrypBS 4 #SwitchBubble #K4Middle] | 57.7 nM | 195 nM | 114 nM | 351 nM | 1130 nM |
| UGUCAUUGGUCUGAUACCAGAAGAAAUCUGGAGUGAUGUUCCGAGUACGACAAAAGUCGCUUCCCUUGGCAGCAGACCGAUGACU [TheoBS 22 #SwitchBubble 13 #StaticStem] | 235 nM | 198 nM | 198 nM | 161 nM | 207 nM |
| UGUCAUUGGUCUGAUACCAGAUGAUAAUCUGGAGUGAUGUUCCAAGAACGACAAAGUCGCAUCCCUUGGCAGCAGACCGAUGACU [TheoBS 18 #SwitchBubble 13 #StaticStem] | 312 nM | 151 nM | 236 nM | 526 nM | 238 nM |
| UGUCAUUGGUCUGAUACCAGCUGAUCGGAAACGAUCAUGCUGGAGUGAUGUUCCAGGAAAAGCCCUUGGCAGCAGACCGAUGACU [TheoBS 11 #SwitchBubble #StaticStem] | 474 nM | 248 nM | 121 nM | 405 nM | 195 nM |
| UGUCAUUGGUCUGAUACCAGCUUGAUCGGUAAACGAUCUACUGGAGUGAUGUUCCUAAAUAGCCCUUGGCAGCAGACCGAUGACU [TheoBS 4 #SwitchBubble #StaticStem] | 197 nM | 157 nM | 180 nM | 123 nM | 173 nM |
| UGUCAUUGGUCUGAUACCAGUUAGACCGAUAAGGUCAAAACUGGAGUGAUGUUCCCAAAUAACCCUUGGCAGCAGACCGAUGACU [TheoBS 5 #SwitchBubble #StaticStem] | 452 nM | 116 nM | 185 nM | 249 nM | 241 nM |
| UGUCAUUGGUCUGAUACCAGUUGAUAAACUGGAGUGAUGUUCCAAUCGAGAUAACUCGACAACCCUUGGCAGCAGACCGAUGACU [TheoBS 15 #SwitchBubble 13 #StaticStem] | 182 nM | 173 nM | 176 nM | 128 nM | 168 nM |
| UGUGAACAAAAGUAGAGUGGACCACUAUAGCGAGGACCGGUACGGCCGCCACUCGUAUAUGAAUUCAGUGAUGUUGAAAAGAGCU [whbob_EX_Tryp_A_t10] | 180 nM | 281 nM | 231 nM | 306 nM | 165 nM |
| UGUGAUGUGUAGUGUUAUGUUUUGAGGGAUACCAGAGUCUUUUUAUUCCCUUGGCAGCUUGAGUGAUGUUUGAUGCUGUUGUUGU [dvccmullin] | 463 nM | 342 nM | 412 nM | 431 nM | 339 nM |
| UGUGCCAACAGCGAUACCAGCCCGGCAGUGAUGUUGCCGGACGGAGUGAUGUUCCGGCAGGGCCCUUGGCAGCGCAGAAGCGCGA [Exclusion Theophylline B Gf 28] | 215 nM | 222 nM | 261 nM | 432 nM | 202 nM |
| UGUGCUGUGUAGUGUAAUGUUUUGCGGGAUACCAGAGUCUUUUUAUUCCCUUGGCAGCUUGAGUGAUGUUUGAUGCUGUUCUUGU [bbtbmullin] | 376 nM | 322 nM | 356 nM | 336 nM | 313 nM |

| Sequence | apparent KD of K4 kissing-loop reporter (input ligand: FMN 200 uM) | apparent KD of K4 kissing-loop reporter (input ligand: arginine 13.2 mM) | apparent KD of K4 kissing-loop reporter (input ligand: none) | apparent KD of K4 kissing-loop reporter [1] | apparent KD of K4 kissing-loop reporter [2] |
| --- | --- | --- | --- | --- | --- |
| UGUGUUGUAUGACGGUUUGUCACUUAGUAUUAGGAUAUAUAAACAAAUAGAAGGGAUGGCGGAGUGAUGUUCCGCCGGCCGCCAU [FMN A Exl V10] | 92.3 nM | 92.9 nM | 80.8 nM | 94 nM | 97.6 nM |
| UGUGUUGUUGUGAUGUUUGGUGUUGUAGGGCAGGAUAUCGUAGAGGCGAGAAGGGCUUUUGUGCGGUAUGAGUGAUGUUUGUAGG [svvsmullin] | 119 nM | 89.3 nM | 160 nM | 134 nM | 122 nM |
| UGUGUUGUUUUGAUGUUUGGUGUUGCAUGGCAGGAUAUCGUAGAGGCGAGAAGGGCUUUUGAGCGGUAUGAGUGAUGUUUGUAGG [p,,mmullin] | 526 nM | 309 nM | 441 nM | 354 nM | 379 nM |
| UGUGUUGUUUUGAUGUUUGGUGUUGCAUGGCAGGAUAUCGUAGAGGCGAGAAGGGCUUUUGUGCGGUAUGAGUGAUGUUUGUAGG [iihymullin] | 509 nM | 372 nM | 509 nM | 466 nM | 398 nM |
| UGUGUUGUUUUGAUGUUUGUUGUAAGUUGGCAGGAUAUCGUAGAGGCGAGAAGGGCUUUUAUGCGUUAUGAGUGAUGUUUGUAGG [ggbgzmullin] | 353 nM | 241 nM | 357 nM | 351 nM | 319 nM |
| UGUGUUUACCUGACUCAGUGAUGUUGAGAAGGAGCGUGCAAAUGCACAGGUAGGUCGCUCAACCUAAAUUCAGGUGAGCACUAAA | 321 nM | 261 nM | 323 nM | 234 nM | 169 nM |
| UGUGUUUACCUGACUCAGUGAUGUUGAGAAGGAGCGUGCGAAAGCACAGGUAGGUCGCUCAACCUAAAUUCAGGUGAGCACUAAA [#SwitchBubble 10 #K4Early] | 268 nM | 234 nM | 341 nM | 334 nM | 277 nM |
| UGUGUUUACCUGACUCAGUGAUGUUGAGAAGGAGCGUGCGAAUGCACAGGUAGGUCGCUCAACCUAAAUUCAGGUGAGCACUAAA | 303 nM | 76.4 nM | 408 nM | 656 nM | 724 nM |
| UGUUAUGUAUCAGGAUAUUAGUGAUGUUUGUUUAUGUUAGUGAUGUUGAUAUUUGUUUUAUGUAUUUAAGAAGGGAUUGUGAUGU [xexxmullin] | 74.1 nM | 23.1 nM | 55.4 nM | 35.9 nM | 57.8 nM |
| UUAAGGGUCCGAGGAUAUCUCCCAGUGAUGUUGGGCGAUACGGCCCUUAAGACGAAUGGUUGAAGGAGAGAAGGCGGCUCCCGAU [Onatbi] | 119 nM | 132 nM | 108 nM | 126 nM | 110 nM |
| UUACCAAGUGAUGUUUGGAAAUAUCCUAGGCAGGAUAUGCGGAAACGCAGAAGGGCCACCUGAUAGUGAAGGAAACUUCGCUAUC [Ex FMN A 1] | 168 nM | 141 nM | 152 nM | 130 nM | 151 nM |
| UUACUACCCAGUGAUGUUGGGUAGCGGCGGCGAGGACCGGUACGGCCGCCACUCGGCGCACGGGAGUGAUGUUCCUGGGAAUAUA [Same State Tryptophan A GF 10] | 281 nM | 187 nM | 375 nM | 709 nM | 254 nM |
| UUAGAGAUCUCAGGAUAUCAGUGAUGUUGUGAUCCAGAUCUGAGAUAGAAUUCUAUCUCAGAUCAAUGAGAAGGGAGAUCUCAUU [AK4.3 Exc FMN B] | 721 nM | 1200 nM | 1490 nM | 878 nM | 1090 nM |
| UUAGAUCAAAGAUCAGUCUUAUCAAGAGCACGAGGACCGGUACGGCCGCCACUCGAGUGAUGUUCGAGAGCUCUUGUGACAAAUU [AK2 EXC Tryptophan A] | 148 nM | 129 nM | 157 nM | 154 nM | 219 nM |
| UUAGAUGAUUCAUCAAGAUUGAUGAGCAAACGAGGACCGGUACGGCCGCCACUCGAGUGAUGUUCGAGAAGCUCAUCAAUCAAUU [AK4.2 EXC Tryptophan A] | 166 nM | 120 nM | 139 nM | 127 nM | 370 nM |
